{"source": "patent US20070167370A1", "about": "(UUTECH, published 2007)", "biological_target": "T1, human GIP receptor, stably transfected in Chinese hamster lung (CHL) fibroblast cells (human, UniProt P48546 22-466)", "T1 sequence (looked up)": "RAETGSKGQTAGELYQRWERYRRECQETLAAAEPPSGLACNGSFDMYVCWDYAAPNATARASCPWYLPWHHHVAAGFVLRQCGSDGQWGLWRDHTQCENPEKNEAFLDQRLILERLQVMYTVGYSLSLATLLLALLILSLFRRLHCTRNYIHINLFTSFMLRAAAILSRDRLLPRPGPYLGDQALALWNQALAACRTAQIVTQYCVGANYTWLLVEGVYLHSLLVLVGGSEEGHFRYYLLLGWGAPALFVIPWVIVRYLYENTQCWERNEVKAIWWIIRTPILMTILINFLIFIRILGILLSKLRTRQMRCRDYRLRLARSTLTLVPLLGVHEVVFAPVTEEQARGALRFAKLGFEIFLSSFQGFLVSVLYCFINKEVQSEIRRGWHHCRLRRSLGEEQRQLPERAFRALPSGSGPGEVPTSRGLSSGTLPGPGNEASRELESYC", "assay": "cell-based or functional assay", "data": [{"binder": "YAPGTFISDYSIAMDKIHQQDFVNWLLAQKGKKNDWKHNITQ", "note": "[(Pro^3)GIP]", "values": [{"measurement": "IC50 of inhibition of GIP-induced cAMP formation (GIP receptor transfected CHL fibroblasts, native GIP 10^-7 M)", "result": 2.6, "unit": "µM"}]}]}
